Experimental data as given in patent US20180155451A1 (published 2018).

T1: FcγRIIb (human, UniProt P31994 43-217)
T1 construct: extracellular domain; also called 2b
T1 sequence (looked up): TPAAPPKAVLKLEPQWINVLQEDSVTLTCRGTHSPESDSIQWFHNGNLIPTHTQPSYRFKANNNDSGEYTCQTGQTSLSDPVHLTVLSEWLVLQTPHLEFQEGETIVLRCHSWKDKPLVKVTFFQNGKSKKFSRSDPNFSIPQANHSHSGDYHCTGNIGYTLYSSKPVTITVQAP

T2: FcγRIIa H (human, UniProt P12318 34-217)
T2 construct: extracellular domain; also called FcγRIIa type H; 2aH
T2 sequence (looked up): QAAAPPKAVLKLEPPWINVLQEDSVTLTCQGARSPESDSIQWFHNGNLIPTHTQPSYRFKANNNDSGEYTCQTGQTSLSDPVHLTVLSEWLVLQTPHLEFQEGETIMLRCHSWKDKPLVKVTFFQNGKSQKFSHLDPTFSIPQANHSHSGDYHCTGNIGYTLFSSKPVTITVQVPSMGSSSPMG


Assays:
FcγRIIb = biological target: T1, FcγRIIb; assay: SPR (Biacore), relative binding vs GpH7-A5/GpH7-B3/GpL16-k0
Protocol: (§1) The heterodimerized antibodies He Abs in which one of the H chains was introduced with an alteration were assayed for their binding activities to each activating FcγR and inhibitory FcγR according to the method described in Example 4. […] The activating FcγRs in FIGS. 26, 27, 28, and 29 are FcγRIa, FcγRIIa (R), FcγRIIa (H), and FcγRIIIa, respectively.
(§2) Analysis of interaction between objective antibody and the FcγR was carried out using Biacore T100 (GE Healthcare). HBS-EP+ (GE Healthcare) was used as the running buffer, and the measurement temperature was set to 25° C. Chips produced by immobilizing the antigen peptide by the amine coupling method to a Series S Sencor Chip CM5 (GE Healthcare), or alternatively, chips produced by allowing preliminarily biotinylated antigen peptides to interact with and immobilize onto a Series S Sensor Chip SA (certified) (GE Healthcare) were used. Antibodies of interest were captured onto an antigen peptide-immobilized chip, and allowed to interact to each FcγR diluted with running buffer. To regenerate and repeatedly use the chip, the antibodies captured on the chip were washed off by reacting 10 mM glycine-HCl, pH 1.5.

FcγRIIa H = biological target: T2, FcγRIIa H; assay: as above
Protocol: as §1, §2

He/Con_2b (FcγRIIb) | He/Con_2aH (FcγRIIa H) | Binder
126 % of control He Ab (=100) | 97.8 % of control He Ab (=100) | GpH7-A5/GpH7-B3 variant L328_03V/GpL16-k0 (antibody, human IgG1, kappa, heterodimerized IgG1, mutation in one H chain only; also called He Ab) heavy 1: not shown heavy 2: not shown light: DIVMTQSPLSLPVTPGEPASISCQASESLVHSNRNTYLHWYLQKPGQSPQLLIYKVSNRFSGVPDRFSGSGSGTDFTLKISRVEAEDVGVYYCSQNTHVPPTFGQGTKVEIERTVAAPSVFIFPPSDEQLKSGTASVVCLLNNFYPREAKVQWKVDNALQSGNSQESVTEQDSKDSTYSLSSTLTLSKADYEKHKVYACEVTHQGLSSPVTKSFNRGEC
160 % of control He Ab (=100) | 93.9 % of control He Ab (=100) | GpH7-A5/GpH7-B3 variant L328_07I/GpL16-k0 (antibody, human IgG1, kappa, heterodimerized IgG1, mutation in one H chain only; also called He Ab) heavy 1: not shown heavy 2: not shown light: DIVMTQSPLSLPVTPGEPASISCQASESLVHSNRNTYLHWYLQKPGQSPQLLIYKVSNRFSGVPDRFSGSGSGTDFTLKISRVEAEDVGVYYCSQNTHVPPTFGQGTKVEIERTVAAPSVFIFPPSDEQLKSGTASVVCLLNNFYPREAKVQWKVDNALQSGNSQESVTEQDSKDSTYSLSSTLTLSKADYEKHKVYACEVTHQGLSSPVTKSFNRGEC
115 % of control He Ab (=100) | 99.7 % of control He Ab (=100) | GpH7-A5/GpH7-B3 variant K334_18N/GpL16-k0 (antibody, human IgG1, kappa, heterodimerized IgG1, mutation in one H chain only; also called He Ab) heavy 1: not shown heavy 2: not shown light: DIVMTQSPLSLPVTPGEPASISCQASESLVHSNRNTYLHWYLQKPGQSPQLLIYKVSNRFSGVPDRFSGSGSGTDFTLKISRVEAEDVGVYYCSQNTHVPPTFGQGTKVEIERTVAAPSVFIFPPSDEQLKSGTASVVCLLNNFYPREAKVQWKVDNALQSGNSQESVTEQDSKDSTYSLSSTLTLSKADYEKHKVYACEVTHQGLSSPVTKSFNRGEC
111 % of control He Ab (=100) | 45.2 % of control He Ab (=100) | GpH7-A5/GpH7-B3 variant N325_03V/GpL16-k0 (antibody, human IgG1, kappa, heterodimerized IgG1, mutation in one H chain only; also called He Ab) heavy 1: not shown heavy 2: not shown light: DIVMTQSPLSLPVTPGEPASISCQASESLVHSNRNTYLHWYLQKPGQSPQLLIYKVSNRFSGVPDRFSGSGSGTDFTLKISRVEAEDVGVYYCSQNTHVPPTFGQGTKVEIERTVAAPSVFIFPPSDEQLKSGTASVVCLLNNFYPREAKVQWKVDNALQSGNSQESVTEQDSKDSTYSLSSTLTLSKADYEKHKVYACEVTHQGLSSPVTKSFNRGEC
197 % of control He Ab (=100) | 52 % of control He Ab (=100) | GpH7-A5/GpH7-B3 variant N325_08L/GpL16-k0 (antibody, human IgG1, kappa, heterodimerized IgG1, mutation in one H chain only; also called He Ab) heavy 1: not shown heavy 2: not shown light: DIVMTQSPLSLPVTPGEPASISCQASESLVHSNRNTYLHWYLQKPGQSPQLLIYKVSNRFSGVPDRFSGSGSGTDFTLKISRVEAEDVGVYYCSQNTHVPPTFGQGTKVEIERTVAAPSVFIFPPSDEQLKSGTASVVCLLNNFYPREAKVQWKVDNALQSGNSQESVTEQDSKDSTYSLSSTLTLSKADYEKHKVYACEVTHQGLSSPVTKSFNRGEC

Continued, binder first:

Binder | He/Con_2b (FcγRIIb) | He/Con_2aH (FcγRIIa H)
GpH7-A5/GpH7-B3 variant L328_09D/GpL16-k0 (antibody, human IgG1, kappa, heterodimerized IgG1, mutation in one H chain only; also called He Ab) heavy 1: not shown heavy 2: not shown light: DIVMTQSPLSLPVTPGEPASISCQASESLVHSNRNTYLHWYLQKPGQSPQLLIYKVSNRFSGVPDRFSGSGSGTDFTLKISRVEAEDVGVYYCSQNTHVPPTFGQGTKVEIERTVAAPSVFIFPPSDEQLKSGTASVVCLLNNFYPREAKVQWKVDNALQSGNSQESVTEQDSKDSTYSLSSTLTLSKADYEKHKVYACEVTHQGLSSPVTKSFNRGEC | 199 % of control He Ab (=100) | 58.5 % of control He Ab (=100)
GpH7-A5/GpH7-B3 variant L328_19Q/GpL16-k0 (antibody, human IgG1, kappa, heterodimerized IgG1, mutation in one H chain only; also called He Ab) heavy 1: not shown heavy 2: not shown light: DIVMTQSPLSLPVTPGEPASISCQASESLVHSNRNTYLHWYLQKPGQSPQLLIYKVSNRFSGVPDRFSGSGSGTDFTLKISRVEAEDVGVYYCSQNTHVPPTFGQGTKVEIERTVAAPSVFIFPPSDEQLKSGTASVVCLLNNFYPREAKVQWKVDNALQSGNSQESVTEQDSKDSTYSLSSTLTLSKADYEKHKVYACEVTHQGLSSPVTKSFNRGEC | 105 % of control He Ab (=100) | 86.8 % of control He Ab (=100)
GpH7-A5/GpH7-B3 variant N325_09D/GpL16-k0 (antibody, human IgG1, kappa, heterodimerized IgG1, mutation in one H chain only; also called He Ab) heavy 1: not shown heavy 2: not shown light: DIVMTQSPLSLPVTPGEPASISCQASESLVHSNRNTYLHWYLQKPGQSPQLLIYKVSNRFSGVPDRFSGSGSGTDFTLKISRVEAEDVGVYYCSQNTHVPPTFGQGTKVEIERTVAAPSVFIFPPSDEQLKSGTASVVCLLNNFYPREAKVQWKVDNALQSGNSQESVTEQDSKDSTYSLSSTLTLSKADYEKHKVYACEVTHQGLSSPVTKSFNRGEC | 124 % of control He Ab (=100) | 53.1 % of control He Ab (=100)
GpH7-A5/GpH7-B3 variant K334_12R/GpL16-k0 (antibody, human IgG1, kappa, heterodimerized IgG1, mutation in one H chain only; also called He Ab) heavy 1: not shown heavy 2: not shown light: DIVMTQSPLSLPVTPGEPASISCQASESLVHSNRNTYLHWYLQKPGQSPQLLIYKVSNRFSGVPDRFSGSGSGTDFTLKISRVEAEDVGVYYCSQNTHVPPTFGQGTKVEIERTVAAPSVFIFPPSDEQLKSGTASVVCLLNNFYPREAKVQWKVDNALQSGNSQESVTEQDSKDSTYSLSSTLTLSKADYEKHKVYACEVTHQGLSSPVTKSFNRGEC | 111 % of control He Ab (=100) | 99.7 % of control He Ab (=100)
